# Experiments:
# [1] = biological target: concanavalin A extracted from Jack beans (Con A, type V, MW ≈ 104,000) (Jack bean); assay: quartz crystal microbalance (QCM); layer-by-layer adsorption on Au/MPS/PDDA-coated quartz resonator; alternate immersion in Con A (1 mg/mL, pH 7.0) and GOD (1 mg/mL, pH 7.0) for 20 min each, 0.1 M Tris-HCl with 0.1 M NaCl, 1 mM MnCl2, 1 mM CaCl2; washed, dried, frequency measured in air
# [2] = biological target: glucose oxidase (GOD, E.C. 1.1.3.4, type VII, MW ≈ 160,000) (UniProt P13006); assay: as above
Substance,average QCM frequency decrease for each layer [1] [Hz],average QCM frequency decrease for each layer [2] [Hz]
"glucose oxidase (GOD, E.C. 1.1.3.4, type VII, MW ≈ 160,000) (from UniProt P13006 17-605) (enzyme)",58,
"concanavalin A extracted from Jack beans (Con A, type V, MW ≈ 104,000) (natural protein)",,82
